From paper PMC4452267

What was measured:
[1] = test system: PpsR (Rubrivivax gelatinosus); test: EMSA; details: EC50, EMSA: 5 nM probe, 25 mM Tris-HCl pH 8.0, 100 mM NaCl, 2 mM MgCl2, 6% glycerol, 50 ug/ml heparin, room temperature 30 min (5 mM DTT if reduced), footprint: …
[2] = test system: PpsR C436A (Rubrivivax gelatinosus); test: EMSA; details: EC50, EMSA: 5 nM probe, 25 mM Tris-HCl pH 8.0, 100 mM NaCl, 2 mM MgCl2, 6% glycerol, 50 ug/ml heparin, room temperature 30 min (5 mM DTT if reduced), footprint: …
[3] = biological target: Rubrivivax gelatinosus PpsR (Rubrivivax gelatinosus); test: SEC; Superose 12 in 20 mM Tris-HCl (pH 8.0), 500 mM NaCl, 6% glycerol, 0.5 ml/min; molecular weight estimated from a standard curve (Gel Filtration Standard, BioRad)
[4] = biological target: T1, PpsR (Rubrivivax gelatinosus) (UniProt I0HUJ5); test: DNase I footprinting; details: EMSA: 5 nM probe, 25 mM Tris-HCl pH 8.0, 100 mM NaCl, 2 mM MgCl2, 6% glycerol, 50 ug/ml heparin, room temperature 30 min (5 mM DTT if reduced); footprint: …
T1 sequence: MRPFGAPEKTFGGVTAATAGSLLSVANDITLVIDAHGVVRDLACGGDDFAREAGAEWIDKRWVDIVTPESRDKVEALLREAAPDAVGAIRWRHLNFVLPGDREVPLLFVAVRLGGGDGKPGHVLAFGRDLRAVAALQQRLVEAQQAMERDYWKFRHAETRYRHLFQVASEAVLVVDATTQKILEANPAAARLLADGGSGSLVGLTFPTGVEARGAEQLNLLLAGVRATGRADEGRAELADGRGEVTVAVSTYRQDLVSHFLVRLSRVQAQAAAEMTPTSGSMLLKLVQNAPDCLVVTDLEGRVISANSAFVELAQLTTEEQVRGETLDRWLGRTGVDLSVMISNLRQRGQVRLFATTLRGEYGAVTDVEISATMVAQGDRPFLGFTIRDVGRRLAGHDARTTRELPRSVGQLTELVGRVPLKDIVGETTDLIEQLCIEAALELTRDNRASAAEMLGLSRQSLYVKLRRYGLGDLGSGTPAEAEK

Row | stoichiometry N [3] | Substance | K half ([1]; oxidized (untreated)) [nM] | K half ([1]; reduced, 5 mM DTT) [nM] | K half ([2]; oxidized (untreated)) [nM] | K half ([2]; reduced, 5 mM DTT) [nM] | binding [4]
1 |  | pucB promoter EMSA probe | 49.8 | 63.3 | 94.1 | 93.3 | 
2 | 4 | Rubrivivax gelatinosus PpsR (natural protein) |  |  |  |  | 
3 |  | ACCAGTTTCCGTGCTCGACCCGCACGTGGGTTGGCTTCTGTAGCCCTCGGATTTCTCCCTACCGACATGTGTAACGCTACGCTGACAGGGTGGGGGCGTCAACATGTCGTGACACCCCCGCAACGCTGAATGTGTCGCGGCTCTGATCTATGACAAATTGCCGGGGTCCGGCGGGCCTCGGGAGCTCT (double strand) [pucB promoter footprint probe] |  |  |  |  | binds
4 |  | crtI promoter EMSA probe | 80.5 | 86.5 | 146 | 147 | 
5 |  | ATCCTGCTTTCCGGCCGCGCGCGGGGCTGCGGCATCCGACTTCATCAGCATCCGTCGAGCTTGTCCTAAGGCAGGGATTGTGTCAACGACAATTGACGCTCTGTTTTGTCAAGCGCAAGATTCAGCCCCATGGCAAGGCCCGCGTTGTCCGCTGTAGCGGAGTTGCTCAAACCGATCACCTGGTTCCCTCCGAT (double strand) [crtI promoter footprint probe] |  |  |  |  | binds
